Consider 21 variants from the RNAGym collection of RNA variant scans (doi:10.1073/pnas.2313332121).

B1: TPR t1 (parent)
chain: GACCAAUCUGCCCUCAGAGCUCGAGAACAUCUUCGGAUGCAGAGGAGGCAGGCUUCGGUGGCGCGAUAGCGCCAACGUCCUCAACCUCCAAUGCAUCCCACCACAUGAUGAUGCCUGAAGAGCCUUGGUUUUUUG

The variants in the series derive from B1. Briefly: polymerase ribozyme fitness, log enrichment relative to wild type (log ratio); higher = more active; in vitro selection for triplet polymerase activity. The gist of the method: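 Genotype fitness is the logarithm of its enrichment divided by wild-type enrichment, using inverse-variance-weighted averages of replicates. That logarithm is base 2. Enrichment was measured by Illumina sequencing of input and output libraries from one triplicate in vitro selection round, with frozen incubation at −7 °C, on PCR-built, transcribed mutant libraries of each subunit of a heterodimeric triplet polymerase ribozyme, retaining genotypes with ≥10 input reads and ≥1 read per output.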
As for GACCAAUCUGCCCUCAGAGCUCGAGAACAUCUUCGGAUGCAGAGGAGGCAGGCUUCGGUGGCGCGAUAGCGCCAACGCCCUCAACCUCCAAUGCAUCCCACCACAUGAAGAUGCCUGAAGAGCCUUGGUUUUUUG [U78C U109A], the “polymerase ribozyme fitness (log ratio)” value is -5.34.

GACCAAUCUGCCCUCAGAGCUCGAGAACAUCUUCGGAUGCAGAGGAGGCAGGCUUCGGUGGCGCGAUAGCGCCAACGCCCUCAACCUCCAAUGGAUCCCACCACAUGGUGAUGGCUGAAGAGCCUUGGUGUUUUG [U78C C94G A108G C114G U130G]: the “polymerase ribozyme fitness (log ratio)” value was -5.42.

For GACCAAUCUGCCCUCAGAGCUCGAGAACAUCUUCGGAUGCAGAGGAGGCAGGCUUCGGUGGCGCGAUAGCGCCAACGCCCUCAACCUCCAAUGCAUCCCACCACCUGAUGAUGCCUGAAGCGCCUUGGUUUUUUG [U78C A105C A121C], the “polymerase ribozyme fitness (log ratio)” value was -0.547.

GACCAAUCUGCCCUCAGAGCUCGAGAACAUCUUCGGAUGCAGAGGAGGCAGGCUUCGGUGGCGCGAUAGCGCCAACGGCCUCAACCUCCACGGCAUCCCACCACAUGAUGAUGCCUGAAGAGCCUUGGUUUUUUG [U78G A91C U92G]: the “polymerase ribozyme fitness (log ratio)” value is -3.13.

Turning to GACCAAUCUGCCCUCAGAGCUCGAGAACAUCUUCGGAUGCAGAGGAGGCAGGCUUCGGUGGCGCGAUAGCGCCAACGGCCUCAUCCUCCAAUGCAUCCCACCACAUGAUGAUGCUUGAAGCGCCUUGGUUUUUUG [U78G A84U C115U A121C], the “polymerase ribozyme fitness (log ratio)” value was -3.92.

GACCAAUCUGCCCUCAGAGCUCGAGAACAUCUUCGGAUGCAGAGGAGGCAGGCUUCGGUGGCGCGAUAGCGCCAACGCCCUCAACCUUCAAUGCAUCCCACCACAUGAUGAUGCCUGAAGCGCCUUGGUUUUUUG [U78C C88U A121C]: the “polymerase ribozyme fitness (log ratio)” value stood at 1.67.

With GACCAAUCUGCCCUCAGAGCUCGAGAACAUCUUCGGAUGCAGAGGAGGCAGGCUUCGGUGGCGCGAUAGCGCCAACGGCCUCAACCUCAAAUGCAUCCCACCACAUGAUGAUGCCUAAAGAGCCUUGGUUUUUUG [U78G C89A G117A], the “polymerase ribozyme fitness (log ratio)” value is -4.25.

Turning to GACCAAUCUGCCCUCAGAGCUCGAGAACAUCUUCGGAUGCAGAGGAGGCAGGCUUCGGUGGCGCGAUAGCGCCAACGGCCUCAACCUCCAAUGCAUCCCACUACAUGAUGAUGCCUGAAGAGCCUUGGUUUUUUG [U78G C102U], the “polymerase ribozyme fitness (log ratio)” value was -1.93.

Turning to GACCAAUCUGCCCUCAGAGCUCGAGAACAUCUUCGGAUGCAGAGGAGGCAGGCUUCGGUGGCGCGAUAGCGCCAACGCCGUCAACCUCCAAUGCAUCCCACCACAUGAUGAUGCCUGAAGGGCCUUGGUUUUUUG [U78C C80G A121G], the “polymerase ribozyme fitness (log ratio)” value is -2.75.

For the variant GACCAAUCUGCCCUCAGAGCUCGAGAACAUCUUCGGAUGCAGAGGAGGCAGGCUUCGGUGGCGCGAUAGCGCCAACGGCUUCAACCUCCAAUUCAUCCCACCACAUGAUGAUGCCUGAAGAGCCUUGGUUUUUUG [U78G C80U G93U], the “polymerase ribozyme fitness (log ratio)” value is -1.61.

For GACCAAUCUGCCCUCAGAGCUCGAGAACAUCUUCGGAUGCAGAGGAGGCAGGCUUCGGUGGCGCGAUAGCGCCAACGCCCUCAACCUCCAAUGCAUCCCACCACAUGAUGAUGCCUGAAGUGCCUUGGUUUUUUG [U78C A121U], the “polymerase ribozyme fitness (log ratio)” value stood at 1.42.

For GACCAAUCUGCCCUCAGAGCUCGAGAACAUCUUCGGAUGCAGAGGAGGCAGGCUUCGGUGGCGCGAUAGCGCCAACGGCCUCAACCUCCAAUGCAUCCCACCACAUGAUUAUGCCUGAAGAGCCUUUGUUUUUUG [U78G G110U G127U], the “polymerase ribozyme fitness (log ratio)” value was -2.47.

Take GACCAAUCUGCCCUCAGAGCUCGAGAACAUCUUCGGAUGCAGAGGAGGCAGGCUUCGGUGGCGCGAUAGCGCCAACGCCCUCAACCUCCAAUGCAUCCCACCACAUGAUGAUGCCUGAAGAGCCAUGGUUUUUUG [U78C U125A]: the “polymerase ribozyme fitness (log ratio)” value is -0.432.

For the variant GACCAAUCUGCCCUCAGAGCUCGAGAACAUCUUCGGAUGCAGAGGAGGCAGGCUUCGGUGGCGCGAUAGCGCCAACGGCCUCAACCUCCAAUGCAUCCCACCACAUGAUGAUGUCUGAAGAGCCUUGGUUUUUUG [U78G C114U], the “polymerase ribozyme fitness (log ratio)” value is -2.96.

Regarding GACCAAUCUGCCCUCAGAGCUCGAGAACAUCUUCGGAUGCAGAGGAGGCAGGCUUCGGUGGCGCGAUAGCGCCAACGCCCUCAACCUGCAAUGCAUCCCACCACAUGAUGAUGCCUGAAGAGCCUUGGUUUUUUG [U78C C88G], the “polymerase ribozyme fitness (log ratio)” value is -0.636.

Regarding GACCAAUCUGCCCUCAGAGCUCGAGAACAUCUUCGGAUGCAGAGGAGGCAGGCUUCGGUGGCGCGAUAGCGCCAACGGCCUCAACCUUCAUUGCUUCCCACCACAUGAUGAUGCCUGAAGAGCCUUGGUUUUUUG [U78G C88U A91U A95U], the “polymerase ribozyme fitness (log ratio)” value is -3.4.

GACCAAUCUGCCCUCAGAGCUCGAGAACAUCUUCGGAUGCAGAGGAGGCAGGCUUCGGUGGCGCGAUAGCGCCAACGCCCUCAACCUCCAAUGCAUCCCACCACAAGAUGAUGCCUGAAGAGCCUUGGUUUUUUG [U78C U106A]: the “polymerase ribozyme fitness (log ratio)” value was determined as 0.00582.

On to GACCAAUCUGCCCUCAGAGCUCGAGAACAUCUUCGGAUGCAGAGGAGGCAGGCUUCGGUGGCGCGAUAGCGCCAACGGCUUCAACCUCCAAUGCAUCCCACCACAUGAUGAUGCCUGAAGAGCCUUGGUUUUUUG [U78G C80U], for which the “polymerase ribozyme fitness (log ratio)” value was -0.927.

Turning to GACCAAUCUGCCCUCAGAGCUCGAGAACAUCUUCGGAUGCAGAGGAGGCAGGCUUCGGUGGCGCGAUAGCGCCAACGCCCUCAACCUCCAAUGCAUCCCACCACAUGAUGAUGCCUGAAGAGCCUUGGUCUUUUG [U78C U130C], the “polymerase ribozyme fitness (log ratio)” value turned out to be 0.0983.

Regarding GACCAAUCUGCCCUCAGAGCUCGAGAACAUCUUCGGAUGCAGAGGAGGCAGGCUUCGGUGGCGCGAUAGCGCCAACGCCCUCAACCUCCAAUGCAUCCCACCACAUGAUGAUACCUGAAGAGCCUUGGUUUUUUG [U78C G113A], the “polymerase ribozyme fitness (log ratio)” value was -1.36.

With GACCAAUCUGCCCUCAGAGCUCGAGAACAUCUUCGGAUGCAGAGGAGGCAGGCUUCGGUGGCGCGAUAGCGCCAACGGCCUCAACCUCCAAUGCAUCCCACCACAUGAUGAUGUCUGAAGAGCCUUGGGUUUUUG [U78G C114U U129G], the “polymerase ribozyme fitness (log ratio)” value was -4.71.
